Source: patent US20120021993A1 (AJOU UNIVERSITY INDUSTRY ACADEMIC COOPERATION FOUNDATION, published 2012)
Blank lines part the entries; values can stand above or below the binder they belong to.

What was measured:
[1] = biological target: T1, TNFα, extracellular domain (amino acid residue 1-157), 6xHis tag (human, UniProt P01375 57-233); assay: cell-based or functional assay
[2] = biological target: T1, TNFα, extracellular domain (amino acid …); assay: affinity ELISA, target coated on the plate
Protocol: (§1) In order to measure the affinity and cross reactivity of the anti-DR4, -DR5 and -TNFα protein scaffold variants based on the Kringle domain structure to the target molecules, an enzyme-linked immunosorbent assay (ELISA) was performed. The target molecules DR4, DR5, TNFα and DcR1, DcR2 were attached to a 96 well EIA/RIA plate (COSTARCorning In., USA) by its reaction at 37° C. for 1 hour, and washed three times with 0.1% PBST (0.1% Tween20, pH 7.4, 137 mM NaCl, 10 mM Phosphate, 2.7 mM KCl, SIGMA-ALDRICH Co., USA) for 10 minutes. The target molecules were attached for 1 hour to a 96 well EIA/RIA plate in 1% PBSB (1% BSA, pH 7.4, 137 mM NaCl, 10 mM Phosphate, 2.7 mM KCl, SIGMA-ALDRICH Co., USA), and then washed three times with 0.1% PBST (0.1% Tween 20, pH 7.4, 137 mM NaCl, 10 mM Phosphate, 2.7 mM KCl, SIGMA-ALDRICH Co., USA) for 10 minutes. Then, the anti-DR4, -DR5 and -TNFα Kringle domain variants were bound, and washed three times with 0.1% PBST for 10 minutes. The anti-DR4, -DR5 and -TNFα Kringle domain variants were primarily bound to mouse-derived anti-c-myc 9e10 mAb (Ig Therapy, Korea), and secondarily bound to alkaline phosphatase (AP)-conjugated anti-mouse mAb (Sigma). Each of the Kringle domain variants was reacted with […] (pNPP, Sigma-aldrich Co., USA) and quantified at an absorbance of 405 nm.
(§2) In order to analyze the affinities of the Fc-fused anti-DR4, -DR5 and -TNFα Kringle domains to target molecules, the affinities of the Fc-fused anti-DR4, -DR5 and -TNFα Kringle domains to the target molecules were analyzed using ELISA, as described in Example 8.

[3] = biological target: T2, cell surface DR4 (human, UniProt O00220 24-468); assay: cell-based or functional assay
[4] = biological target: T3, human-derived cell death receptor 4, extracellular domain (amino acid residues 1-216), 6xHis tag (human, UniProt O00220 24-239); assay: ELISA, coated DR4, A405
T3 construct: extracellular domain; Expressed in E. coli; biotinylated for sorting and flow cytometry; residues 1-216; also called DR4; TRAIL-receptor 1

[5] = biological target: T3, human-derived cell death receptor 4, …; assay: ELISA, coated target, A405
Protocol: as §1, with “The anti-DR4, -DR5 and -TNFα Kringle domain variants were primarily bound to mouse-derived anti-c-myc 9e10 mAb (Ig Therapy, Korea), and secondarily bound to alkaline phosphatase (AP)-conjugated anti-mouse mAb (Sigma).” left out
as §2

[6] = biological target: T3, human-derived cell death receptor 4, …; assay: ELISA, coated target, A405; remark: listed apart in the source
[7] = biological target: T3, human-derived cell death receptor 4, …; assay: ELISA on coated DR4, KD413 alone, A405
[8] = biological target: T3, human-derived cell death receptor 4, …; assay: ELISA on coated DR4, KD413 alone, A405; remark: listed apart in the source
[9] = biological target: T3, human-derived cell death receptor 4, …; assay: ELISA, coated target, A405 [upper panel]
Protocol: as §1

[10] = biological target: T4, DcR1 (UniProt O14798 26-221, limits assumed); assay: yeast display, flow cytometry MFI [panel KD413]
T4 sequence (looked up): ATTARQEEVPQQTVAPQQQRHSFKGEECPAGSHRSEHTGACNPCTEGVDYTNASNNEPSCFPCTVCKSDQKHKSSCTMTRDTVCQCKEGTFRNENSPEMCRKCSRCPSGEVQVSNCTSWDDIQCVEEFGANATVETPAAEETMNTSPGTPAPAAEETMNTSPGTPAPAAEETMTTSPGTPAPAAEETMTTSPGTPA

[11] = biological target: T5, DcR2 (UniProt Q9UBN6 56-211, limits assumed); assay: ELISA, coated target, single binder concentration not given, A405
T5 sequence (looked up): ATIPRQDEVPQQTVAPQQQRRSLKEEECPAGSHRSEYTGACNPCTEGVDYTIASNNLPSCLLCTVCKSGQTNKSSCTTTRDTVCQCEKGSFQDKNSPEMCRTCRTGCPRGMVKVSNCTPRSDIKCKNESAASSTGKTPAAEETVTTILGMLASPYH

[12] = biological target: T3, human-derived cell death receptor 4, …; assay: competitive ELISA on coated DR4, biotinylated KD413 with TRAIL (amount not given), A405
[13] = biological target: T3, human-derived cell death receptor 4, …; assay: competitive ELISA on coated DR4, biotinylated KD413 with KD415 (amount not given), A405
[14] = biological target: cell surface DR5 (human, UniProt O14763 56-440); assay: cell-based or functional assay
[15] = biological target: T6, human-derived cell death receptor 5, extracellular domain (amino acid residues 1-130), 6xHis tag (human, UniProt O14763 56-210); assay: ELISA, coated DR5, A405
T6 construct: extracellular domain; Expressed in E. coli; biotinylated for sorting and flow cytometry; also called DR5; TRAIL-receptor 2

[16] = biological target: T6, human-derived cell death receptor 5, …; assay: ELISA, coated target, A405
[17] = biological target: T6, human-derived cell death receptor 5, …; assay: ELISA on coated DR5, KD506 alone, A405
[18] = biological target: T6, human-derived cell death receptor 5, …; assay: ELISA, coated target, A405 [upper panel]
Protocol: as §1

[19] = biological target: T2, cell surface DR4; assay: flow cytometry on BJAB(DR5-/-) cells, MFI
[20] = biological target: T3, human-derived cell death receptor 4, …; assay: yeast display, flow cytometry MFI [panel KD506]
[21] = biological target: T4, DcR1; assay: yeast display, flow cytometry MFI [panel KD506]
[22] = biological target: T5, DcR2; assay: yeast display, flow cytometry MFI [panel KD506]
[23] = biological target: T6, human-derived cell death receptor 5, …; assay: competitive ELISA on coated DR5, biotinylated KD506 with TRAIL (amount not given), A405
[24] = biological target: T3, human-derived cell death receptor 4, …; assay: ELISA, coated target, single binder concentration not given, A405
[25] = biological target: T1, TNFα, extracellular domain (amino acid …); assay: as above
[26] = biological target: T4, DcR1; assay: as above
[27] = biological target: T6, human-derived cell death receptor 5, …; assay: ELISA, coated target, A405; remark: listed apart in the source
Protocol: as §1

[28] = biological target: T6, human-derived cell death receptor 5, …; assay: ELISA, coated target, A405; remark: listed apart in the source
[29] = biological target: T6, human-derived cell death receptor 5, …; assay: ELISA on coated DR5, KD548 alone, A405
[30] = biological target: T6, human-derived cell death receptor 5, …; assay: ELISA on coated DR5, KD548 alone, A405; remark: listed apart in the source
[31] = biological target: T6, human-derived cell death receptor 5, …; assay: ELISA, coated target, A405 [lower panel]
Protocol: as §1

[32] = biological target: T3, human-derived cell death receptor 4, …; assay: yeast display, flow cytometry MFI [panel KD548]
[33] = biological target: T6, human-derived cell death receptor 5, …; assay: competitive ELISA on coated DR5, biotinylated KD548 with KD506 (amount not given), A405

T1 sequence (P01375 other isoform, or with tags, fused parts or gaps limits assumed): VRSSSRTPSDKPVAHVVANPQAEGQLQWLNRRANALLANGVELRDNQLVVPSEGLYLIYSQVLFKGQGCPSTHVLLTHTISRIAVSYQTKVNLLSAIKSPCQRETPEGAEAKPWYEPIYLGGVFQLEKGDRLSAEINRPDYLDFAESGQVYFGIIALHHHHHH

B1: KDT26-Fc (Fc fusion)
chain: CPRDQGNQYDGFRYGTYRGHRCQHWTRDEPHFHGFGHQHKYTYRHKKNYCRNPDARPRPWCFTHRYQNRNELCHQPRC
notes: Disulfide-linked dimer from Pichia pastoris; also called KRT26-Fc; Fc-fused anti-TNFα Kringle domain KDT26; not shown: Fc domain region from a hinge of human immunoglobulin G1
IC50 (50% inhibiting concentration) of TNFα-mediated cell death, WEHI 164, MTT assay [1]: 5.2 nM
affinity [2]: 3.8 nM

B2: KD413 (designed binder)
chain: CAKAEGTGYDGHEHKTHKGIRCQNWYKSKPHYHGHQFRDGDKIKNKKNYCRNPDPRAGPWCFTHGNRNRYELCNQPRC
notes: Soluble monomer from Pichia pastoris; also called anti-DR4 Kringle domain variant KD413; not shown: C-terminal myc tag-6xHis tag of pPICZaA
EC50 (a concentration of protein causing a 50% cell death), Jurkat, MTT assay [3]: 90 nM
EC50 (read off the curve) [4]: ~200 nM
EC50 (read off the curve) [5]: ~100 nM
EC50 (read off the curve) [6]: ~100 nM
EC50 (read off the curve) [7]: ~800 nM
EC50 (read off the curve) [8]: ~200 nM
EC50 (read off the curve) [9]: ~200 nM
binding result [10]: no binding
binding result [11]: no binding
EC50 (read off the curve) [12]: ~800 nM
EC50 (read off the curve) [13]: ~400 nM

B5: KD548 (designed binder)
chain: CHQTQGPKYDGNKDKTHKGHKCQSWTKNRPHHHGNKIENEDENRFQKNYCRNPDNKHEPWCFTHGHRDKHELCHEPRC
notes: Soluble monomer from Pichia pastoris; also called anti-DR5 Kringle domain variant KD548; not shown: C-terminal myc tag-6xHis tag of pPICZaA
EC50 (a concentration of protein causing a 50% cell death), HL60, MTT assay [14]: 260 nM
EC50 (read off the curve) [27]: ~600 nM
EC50 (read off the curve) [28]: ~200 nM
EC50 (read off the curve) [29]: ~900 nM
EC50 (read off the curve) [30]: ~600 nM
EC50 (read off the curve) [31]: ~200 nM
binding result [32]: binds
EC50 (read off the curve) [33]: ~600 nM

Further lines, with some results ahead:

binding result [19]: no binding
binding result [21]: no binding
binding result [22]: no binding
B3: KD506 (designed binder)
chain: CPEDRGHEYDGDGDKTNRGHGCQYWDQNKPHHHGHRDKDKFKHRIKKNYCRNPDYETGPWCFTNRYRNKNELCHEPRC
notes: Soluble monomer from Pichia pastoris; also called anti-DR5 Kringle domain variant KD506; KR506; not shown: C-terminal myc tag-6xHis tag of pPICZaA
EC50 (a concentration of protein causing a 50% cell death), HL60, MTT assay [14]: 210 nM
EC50 (a concentration of protein causing a 50% cell death), Jurkat, MTT assay [14]: 200 nM
EC50 (read off the curve) [15]: ~300 nM
EC50 (read off the curve) [16]: ~300 nM
EC50 (read off the curve) [17]: ~100 nM
EC50 (read off the curve) [18]: ~300 nM
binding result [20]: no binding
EC50 (read off the curve) [23]: ~100 nM

binding result [26]: no binding
binding result [11]: no binding
B4: PgnKD2 (other, human, UniProt P00747 184-262, looked up)
single chain: ECMHCSGENYDGKISKTMSGLECQAWDSQSPHAHGYIPSKFPNKNLKKNYCRNPDRELRPWCFTTDPNKRWELCDIPRC
notes: isolated Kringle domain 2; negative control; also called wild-type plasminogen Kringle domain 2
binding result [24]: no binding
binding result [25]: no binding
